Measurements published in patent US20100291638.

Tests used:
Details in all cases: dNTP incorporation; background <500
[1] = tested on: T1, DNA polymerase clone 1128 (uncultured hot spring virus (Great Boiling Spring))
T1 sequence: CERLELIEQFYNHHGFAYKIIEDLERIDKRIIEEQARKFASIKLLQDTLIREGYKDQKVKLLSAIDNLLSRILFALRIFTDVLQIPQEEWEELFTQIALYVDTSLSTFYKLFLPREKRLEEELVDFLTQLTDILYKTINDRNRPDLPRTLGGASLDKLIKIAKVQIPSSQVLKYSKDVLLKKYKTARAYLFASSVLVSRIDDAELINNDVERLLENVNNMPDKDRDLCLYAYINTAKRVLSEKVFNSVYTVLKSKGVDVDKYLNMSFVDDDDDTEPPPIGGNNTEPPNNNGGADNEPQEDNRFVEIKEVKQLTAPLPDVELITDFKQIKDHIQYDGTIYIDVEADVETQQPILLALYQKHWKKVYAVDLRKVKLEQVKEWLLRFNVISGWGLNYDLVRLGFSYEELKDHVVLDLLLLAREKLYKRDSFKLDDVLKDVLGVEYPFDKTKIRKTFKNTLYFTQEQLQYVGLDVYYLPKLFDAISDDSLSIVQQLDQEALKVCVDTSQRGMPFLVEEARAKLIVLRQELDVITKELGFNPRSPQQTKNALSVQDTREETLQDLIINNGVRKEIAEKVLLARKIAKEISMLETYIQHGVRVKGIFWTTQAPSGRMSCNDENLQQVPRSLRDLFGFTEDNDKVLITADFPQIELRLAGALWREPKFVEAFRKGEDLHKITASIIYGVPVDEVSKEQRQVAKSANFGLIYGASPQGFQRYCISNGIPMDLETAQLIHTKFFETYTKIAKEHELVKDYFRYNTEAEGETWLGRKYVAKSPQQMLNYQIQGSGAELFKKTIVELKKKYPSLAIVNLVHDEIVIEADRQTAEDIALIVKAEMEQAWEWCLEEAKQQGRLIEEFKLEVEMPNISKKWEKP

[2] = tested on: T2, DNA polymerase clone 1160 (uncultured hot spring virus (Great Boiling Spring))
T2 sequence: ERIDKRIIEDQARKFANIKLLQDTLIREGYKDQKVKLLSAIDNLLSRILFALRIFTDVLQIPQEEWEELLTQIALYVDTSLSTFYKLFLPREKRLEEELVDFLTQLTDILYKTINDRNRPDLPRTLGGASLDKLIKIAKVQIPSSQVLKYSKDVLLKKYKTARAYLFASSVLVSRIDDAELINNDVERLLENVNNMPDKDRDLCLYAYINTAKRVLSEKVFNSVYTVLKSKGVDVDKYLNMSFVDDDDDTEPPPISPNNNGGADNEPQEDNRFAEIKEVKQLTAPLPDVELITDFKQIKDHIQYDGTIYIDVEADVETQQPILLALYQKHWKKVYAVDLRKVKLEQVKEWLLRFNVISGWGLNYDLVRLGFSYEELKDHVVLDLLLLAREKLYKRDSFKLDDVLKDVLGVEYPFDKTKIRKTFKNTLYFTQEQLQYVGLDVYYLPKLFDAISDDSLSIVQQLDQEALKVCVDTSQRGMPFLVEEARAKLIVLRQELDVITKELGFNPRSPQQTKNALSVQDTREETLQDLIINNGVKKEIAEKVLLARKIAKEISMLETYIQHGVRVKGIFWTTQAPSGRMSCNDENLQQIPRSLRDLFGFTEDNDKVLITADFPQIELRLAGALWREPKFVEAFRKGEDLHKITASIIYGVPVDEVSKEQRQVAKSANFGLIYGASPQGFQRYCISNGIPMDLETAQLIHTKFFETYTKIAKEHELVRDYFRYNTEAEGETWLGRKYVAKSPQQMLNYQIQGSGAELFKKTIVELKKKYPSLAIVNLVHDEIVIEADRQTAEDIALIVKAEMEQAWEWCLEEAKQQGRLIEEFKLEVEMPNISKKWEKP

[3] = tested on: T3, DNA polymerase clone 1753 (uncultured hot spring virus (Great Boiling Spring))
T3 sequence: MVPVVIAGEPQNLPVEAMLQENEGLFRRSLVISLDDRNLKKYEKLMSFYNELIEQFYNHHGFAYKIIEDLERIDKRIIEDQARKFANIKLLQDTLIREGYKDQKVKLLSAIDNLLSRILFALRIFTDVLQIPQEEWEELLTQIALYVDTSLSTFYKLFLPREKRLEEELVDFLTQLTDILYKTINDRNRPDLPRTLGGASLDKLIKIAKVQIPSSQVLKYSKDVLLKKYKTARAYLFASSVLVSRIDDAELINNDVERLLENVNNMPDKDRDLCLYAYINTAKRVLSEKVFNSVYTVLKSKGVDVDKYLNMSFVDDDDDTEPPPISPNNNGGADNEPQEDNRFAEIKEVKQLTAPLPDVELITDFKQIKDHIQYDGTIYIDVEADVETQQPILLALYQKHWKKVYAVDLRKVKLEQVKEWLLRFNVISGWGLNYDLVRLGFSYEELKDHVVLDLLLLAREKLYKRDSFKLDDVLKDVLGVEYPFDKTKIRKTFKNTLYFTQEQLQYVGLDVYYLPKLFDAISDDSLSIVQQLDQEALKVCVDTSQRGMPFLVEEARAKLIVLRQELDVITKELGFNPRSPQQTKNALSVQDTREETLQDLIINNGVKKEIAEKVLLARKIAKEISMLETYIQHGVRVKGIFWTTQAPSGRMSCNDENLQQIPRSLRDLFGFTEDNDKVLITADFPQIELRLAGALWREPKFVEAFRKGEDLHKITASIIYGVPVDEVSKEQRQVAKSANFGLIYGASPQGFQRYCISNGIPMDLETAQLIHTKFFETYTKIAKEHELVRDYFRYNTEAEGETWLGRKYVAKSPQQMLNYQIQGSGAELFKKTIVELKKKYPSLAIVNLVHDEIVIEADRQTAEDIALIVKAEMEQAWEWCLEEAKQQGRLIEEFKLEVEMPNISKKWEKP

[4] = tested on: T4, DNA polymerase clone 347 (uncultured hot spring virus (Great Boiling Spring))
T4 sequence: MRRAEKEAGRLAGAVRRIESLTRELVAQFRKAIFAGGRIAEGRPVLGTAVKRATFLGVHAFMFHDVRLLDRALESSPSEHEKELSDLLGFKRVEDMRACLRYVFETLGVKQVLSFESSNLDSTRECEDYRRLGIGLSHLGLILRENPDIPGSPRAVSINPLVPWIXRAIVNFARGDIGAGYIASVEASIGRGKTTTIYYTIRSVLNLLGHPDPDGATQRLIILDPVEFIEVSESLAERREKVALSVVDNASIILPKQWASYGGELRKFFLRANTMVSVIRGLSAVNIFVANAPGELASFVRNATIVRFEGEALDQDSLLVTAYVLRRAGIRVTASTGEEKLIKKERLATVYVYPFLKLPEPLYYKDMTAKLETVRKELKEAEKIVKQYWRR

activated calf thymus DNA
activity [1]: 16400 cpm | activity [2]: 139000 cpm | activity [3]: 141000 cpm | activity [4]: 18700 cpm
